Results published in PMC4772074 (Biochemistry, 2015).

Target: the molecule itself
Assay: SEC-MALS

B1: E. coli CheA (enzyme)
chain: MSMDISDFYQTFFDEADELLADMEQHLLVLQPEAPDAEQLNAIFRAAHSIKGGAGTFGFSVLQETTHLMENLLDEARRGEMQLNTDIINLFLETKDIMQEQLDAYKQSQEPDAASFDYICQALRQLALEAKGETPSAVTRLSVVAKSEPQDEQSRSQSPRRIILSRLKAGEVDLLEEELGHLTTLTDVVKGADSLSAILPGDIAEDDITAVLCFVIEADQITFETVEVSPKISTPPVLKLAAEQAPTGRVEREKTTRSNESTSIRVAVEKVDQLINLVGELVITQSMLAQRSSELDPVNHGDLITSMGQLQRNARDLQESVMSIRMMPMEYVFSRYPRLVRDLAGKLGKQVELTLVGSSTELDKSLIERIIDPLTHLVRNSLDHGIELPEKRLAAGKNSVGNLILSAEHQGGNICIEVTDDGAGLNRERILAKAASQGLTVSENMSDDEVAMLIFAPGFSTAEQVTDVSGRGVGMDVVKRNIQKMGGHVEIQSKQGTGTTIRILLPLTLAILDGMSVRVADEVFILPLNAVMESLQPREADLHPLAGGERVLEVRGEYLPIVELWKVFNVAGAKTEATQGIVVILQSGGRRYALLVDQLIGQHQVVVKNLESNYRKVPGISAATILGDGSVALIVDVSALQAINREQRMANTAA
stoichiometry N: 2
